Entries after “also recorded” stand apart in the source; their conditions may differ.
Key:
p97-C10 peptide = assay: Fluorescence anisotropy, UBXD1-PUB constructs titrated to 5,6-FAM labeled p97-C10 peptide; assay type: binding; conditions: for Kd: UBXD1-PUB (150–264) mutants titrated to 5,6-FAM labeled p97-C10 peptide (100 nM), 50 mM NaKPi, pH 6.5, 25 °C, fluorescence anisotropy ex 495/em 518 nm, fit of averaged triplicates ± standard deviation of the fit; for change in p97 binding affinity versus wild type, in words / fold change in KD / affinity versus wild type: UBXD1-PUB mutant vs wt, p97-C10, fluorescence anisotropy
Description: N-terminal hexahistidine-tagged UBXD1-PUB (150–264) was cloned into a pET28a expression vector using the NdeI and HindIII restriction sites. UBXD1 point mutants were produced by site-directed mutagenesis following the Quikchange protocol (Agilent Technologies).
Unlabeled p97-C10 ([…]), p97-C13 ([…]), and phosphorylated p97-C13 ([…]pYG) peptides for NMR and ITC as well as 5,6-FAM-labeled peptides for fluorescence studies were purchased from Caslo ApS (Denmark).
(§1) Fluorescence anisotropy measurements (excitation: 495 nm; emission 518 nm) were carried out on a JASCO FP-8300 fluorescence spectrometer in 50 mM NaKPi, pH 6.5 at 25 °C, titrating PUB constructs to 5,6-FAM labeled p97-C10 peptide (100 nM). All titrations were performed in triplicate. Binding curves of the averaged data were fitted with GraphPad Prism 5.0 (GraphPad) using the quadratic binding equation for a one-site specific binding model:(3) r=r0+rmax⋅(F+x+KD)−(F+x+KD)^2−4⋅x⋅F/2⋅F, with r = anisotropy, r0 = anisotropy without protein, rmax = maximum anisotropy, F = fluorescent probe (labeled peptide or protein) concentration, x = titrant protein concentration, and KD = dissociation constant.
(§2) Data points are shown as means ± standard deviation based on the three experiments. KD values are given as fit of the averaged data points ± standard deviation of the fit.

[1] = CD spectroscopy, secondary structure composition; assay type: physicochemical; conditions: 0.15 mg/mL protein, 50 mM NaKPi pH 6.5, 25 °C; for α-helical content: 25 scans averaged, DichroWeb CDSSTR
Protocol: CD spectra were recorded on a Jasco J-170 CD spectrometer in a 1 mm quartz cuvette at 25 °C averaging 25 scans. Samples consisted of 0.15 mg/mL protein in 50 mM NaKPi, pH 6.5. The secondary structure composition was analyzed using DichroWeb (http://dichroweb.cryst.bbk.ac.uk) employing the CDSSTR algorithm.

full-length p97 (p97-fl) = assay: Fluorescence anisotropy, UBXD1-PUB with full-length p97; assay type: binding; conditions: isolated PUB domain of UBXD1
Protocol: as §1, §2

p97 = conditions: qualitative pulldown; ref [29]; cited from earlier work
Description: The PIM binding pockets of UBXD1-PUB and its closest homologue PNGase-PUB and the position of the p97-PIM peptide inside the pocket are almost identical, with small differences (Figure 6 and Figure 7). The side chains of the conserved UBXD1-Y181 and PNGase-Y38 are in the same position, stacking with p97-Y805 and forming a putative H-bond (3.2 or 3.1 Å, respectively) to the backbone carbonyl of p97-L804. UBDXD1-Y194 and PNGase-Y51, which represent the second conserved tyrosine of the PIM pocket, both stack with p97-Y805 and are only slightly shifted with respect to each other. However, the intr ...

| Molecule | Kd (p97-C10 peptide) [µM] | change in p97 binding affinity versus wild type, in words (p97-C10 peptide) | other results |
| --- | --- | --- | --- |
| N201D: UBXD1-PUB point mutant (protein, left off: His6, N-terminal, cleaved, UBXD1-PUB point mutant) STDPVAASIMKIYTFNKDQDRVKLGVDTIAKYLDNIHLHPEEEKYRKIKLQDKVFQERINCLEGTHEFFEAIGFQKVLLPAQDQEDPEEFYVLSETTLAQPQSLERHKEQLLAAE | 280 ± 3 | largest decrease in binding affinity | – |
| Y181F: UBXD1-PUB point mutant (protein, left off: His6, N-terminal, cleaved, UBXD1-PUB point mutant) STDPVAASIMKIYTFNKDQDRVKLGVDTIAKFLDNIHLHPEEEKYRKIKLQNKVFQERINCLEGTHEFFEAIGFQKVLLPAQDQEDPEEFYVLSETTLAQPQSLERHKEQLLAAE | 28.4 ± 0.6 | – | – |
| E206R: UBXD1-PUB point mutant (protein, left off: His6, N-terminal, cleaved, UBXD1-PUB point mutant) STDPVAASIMKIYTFNKDQDRVKLGVDTIAKYLDNIHLHPEEEKYRKIKLQNKVFQRRINCLEGTHEFFEAIGFQKVLLPAQDQEDPEEFYVLSETTLAQPQSLERHKEQLLAAE | 39.4 ± 0.9 | – | – |
| Y181A: UBXD1-PUB point mutant (protein, left off: His6, N-terminal, cleaved, UBXD1-PUB point mutant) STDPVAASIMKIYTFNKDQDRVKLGVDTIAKALDNIHLHPEEEKYRKIKLQNKVFQERINCLEGTHEFFEAIGFQKVLLPAQDQEDPEEFYVLSETTLAQPQSLERHKEQLLAAE | 111 ± 2 | largest decrease in binding affinity | – |
| Q200A: UBXD1-PUB point mutant (protein, left off: His6, N-terminal, cleaved, UBXD1-PUB point mutant) STDPVAASIMKIYTFNKDQDRVKLGVDTIAKYLDNIHLHPEEEKYRKIKLANKVFQERINCLEGTHEFFEAIGFQKVLLPAQDQEDPEEFYVLSETTLAQPQSLERHKEQLLAAE | 8.3 ± 0.3 | do not show a decreased affinity | – |
| Y194F: UBXD1-PUB point mutant (protein, left off: His6, N-terminal, cleaved, UBXD1-PUB point mutant) STDPVAASIMKIYTFNKDQDRVKLGVDTIAKYLDNIHLHPEEEKFRKIKLQNKVFQERINCLEGTHEFFEAIGFQKVLLPAQDQEDPEEFYVLSETTLAQPQSLERHKEQLLAAE | 141 ± 2 | largest decrease in binding affinity; also recorded: large decrease in affinity | α-helical content [1]: 50% |
| K198E: UBXD1-PUB point mutant (protein, left off: His6, N-terminal, cleaved, UBXD1-PUB point mutant) STDPVAASIMKIYTFNKDQDRVKLGVDTIAKYLDNIHLHPEEEKYRKIELQNKVFQERINCLEGTHEFFEAIGFQKVLLPAQDQEDPEEFYVLSETTLAQPQSLERHKEQLLAAE | 49.3 ± 0.8 | – | – |
| N201A: UBXD1-PUB point mutant (protein, left off: His6, N-terminal, cleaved, UBXD1-PUB point mutant) STDPVAASIMKIYTFNKDQDRVKLGVDTIAKYLDNIHLHPEEEKYRKIKLQAKVFQERINCLEGTHEFFEAIGFQKVLLPAQDQEDPEEFYVLSETTLAQPQSLERHKEQLLAAE | 64.1 ± 0.8 | – | fold change in KD / affinity versus wild type (p97-C10 peptide): 5 fold |
| V203A: UBXD1-PUB point mutant (protein, left off: His6, N-terminal, cleaved, UBXD1-PUB point mutant) STDPVAASIMKIYTFNKDQDRVKLGVDTIAKYLDNIHLHPEEEKYRKIKLQNKAFQERINCLEGTHEFFEAIGFQKVLLPAQDQEDPEEFYVLSETTLAQPQSLERHKEQLLAAE | 25.3 ± 0.5 | – | – |
| Y194A: UBXD1-PUB point mutant (protein, left off: His6, N-terminal, cleaved, UBXD1-PUB point mutant) STDPVAASIMKIYTFNKDQDRVKLGVDTIAKYLDNIHLHPEEEKARKIKLQNKVFQERINCLEGTHEFFEAIGFQKVLLPAQDQEDPEEFYVLSETTLAQPQSLERHKEQLLAAE | 53 ± 2 | large decrease in affinity | α-helical content [1]: 30%; folding / secondary structure, in words ([1]; compared with wild type): partial loss of secondary structure |
| K193E: UBXD1-PUB point mutant (protein, left off: His6, N-terminal, cleaved, UBXD1-PUB point mutant) STDPVAASIMKIYTFNKDQDRVKLGVDTIAKYLDNIHLHPEEEEYRKIKLQNKVFQERINCLEGTHEFFEAIGFQKVLLPAQDQEDPEEFYVLSETTLAQPQSLERHKEQLLAAE | 17.7 ± 0.4 | do not show a decreased affinity | – |
| R207E: UBXD1-PUB point mutant (protein, left off: His6, N-terminal, cleaved, UBXD1-PUB point mutant) STDPVAASIMKIYTFNKDQDRVKLGVDTIAKYLDNIHLHPEEEKYRKIKLQNKVFQEEINCLEGTHEFFEAIGFQKVLLPAQDQEDPEEFYVLSETTLAQPQSLERHKEQLLAAE | 88 ± 1 | – | fold change in KD / affinity versus wild type (p97-C10 peptide): six; fold change in KD / affinity versus wild type (p97-C10 peptide; listed as R207 to E): 6 fold |
| N184A: UBXD1-PUB point mutant (protein, left off: His6, N-terminal, cleaved, UBXD1-PUB point mutant) STDPVAASIMKIYTFNKDQDRVKLGVDTIAKYLDAIHLHPEEEKYRKIKLQNKVFQERINCLEGTHEFFEAIGFQKVLLPAQDQEDPEEFYVLSETTLAQPQSLERHKEQLLAAE | 28.7 ± 0.5 | – | – |
| wild type (wt): N-terminal hexahistidine-tagged UBXD1-PUB (150–264), tag cleaved with thrombin (protein, left off: His6, N-terminal, cleaved, N-terminal hexahistidine-tagged UBXD1-PUB (150–264), tag cleaved with thrombin) STDPVAASIMKIYTFNKDQDRVKLGVDTIAKYLDNIHLHPEEEKYRKIKLQNKVFQERINCLEGTHEFFEAIGFQKVLLPAQDQEDPEEFYVLSETTLAQPQSLERHKEQLLAAE | 13.8 ± 0.3 | – | affinity for full-length p97 relative to isolated PIM peptides (full-length p97 (p97-fl)): same range as for the isolated PIM peptides; α-helical content [1]: 80% |
| N184D: UBXD1-PUB point mutant (protein, left off: His6, N-terminal, cleaved, UBXD1-PUB point mutant) STDPVAASIMKIYTFNKDQDRVKLGVDTIAKYLDDIHLHPEEEKYRKIKLQNKVFQERINCLEGTHEFFEAIGFQKVLLPAQDQEDPEEFYVLSETTLAQPQSLERHKEQLLAAE | 80 ± 2 | – | – |
| PNGase K50A, Y51A double mutant: PNGase double mutant (protein, UniProt Q96IV0 2-654, looked up, variant K50A Y51A) Peptide-N(4)-(N-acetyl-beta-gl …: AAAALGSSSGSASPAVAELCQNTPETFLEASKLLLTYADNILRNPNDEAARSIRIGNTAFSTRLLPVRGAVECLFEMGFEEGETHLIFPKKASVEQLQKIRDLIAIERSSRLDGSNKSHKVKSSQQPAASTQLPTTPSSNPSGLNQHTRNRQGQSSDPPSASTVAADSAILEVLQSNIQHVLVYENPALQEKALACIPVQELKRKSQEKLSRARKLDKGINISDEDFLLLELLHWFKEEFFHWVNNVLCSKCGGQTRSRDRSLLPSDDELKWGAKEVEDHYCDACQFSNRFPRYNNPEKLLETRCGRCGEWANCFTLCCRAVGFEARYVWDYTDHVWTEVYSPSQQRWLHCDACEDVCDKPLLYEIGWGKKLSYVIAFSKDEVVDVTWRYSCKHEEVIARRTKVKEALLRDTINGLNKQRQLFLSENRRKELLQRIIVELVEFISPKTPKPGELGGRISGSVAWRVARGEMGLQRKETLFIPCENEKISKQLHLCYNIVKDRYVRVSNNNQTISGWENGVWKMESIFRKVETDWHMVYLARKEGSSFAYISWKFECGSVGLKVDSISIRTSSQTFQTGTVEWKLRSDTAQVELTGDNSLHSYADFSGATEVILEAELSRGDGDVAWQHTQLFRQSLNDHEENCLEIIIKFSDL | – | – | binding in pulldown assay (p97): did not show impaired binding |

Source: publication PMC6995525, “Structure of the PUB Domain from Ubiquitin Regulatory X Domain Protein 1 (UBXD1) and Its Interaction with the p97 AAA+ ATPase” (Biomolecules, 2019)
